Experimental data as given in the DeepSol protein solubility set.

experiment: soluble on expression in E. coli; label from the status in PepcDB or PDB records

Row | Sequence | soluble on expression in E. coli
1 | MMQSGYRAPISRKSVVNTTPATPARTDRRTVSMAQQLLMPKATAVWLVDNTALSFDQIATFCKLHPLEVKAIADGEAAQGIKGLDPIATGQLSRDEIARAEGNPSHKLKLSEPKVRVPESKRRGPRYTPVSKRQDRPNAILWLVRNHPELKDAQISRLVGTTKSTIEQIRDRTHWNSANLTPMDPVTLGLCSQIDLDLEVERASRGRPLPTAEELGNTLQPATATEGLDYNNYQREEEQQIDADAVFKKLSSLKSAPKDEDEDDQYLEHHHHHH | soluble
2 | MMRSHVITHFSMPNIDLHSHSTISDGMLSPSRLLAHAAVRGVNVLALTDHDDIAGLSEASRSAQQENITLIRGVEISVTWHGRTLHILGLGINPEHPPLTEGLKKIRDGRMDRARAIAAQLDKFGIHGSFEGASAQAGISRLIGRTHFARFLVSQGYAKNVKSVFKKYLVKGKPGHVSHVWVSLDEAIGWIRGSGGQAVIAHPARYKLSNDLLEQLLCEFRELGGAGIEVVSSSHTPEQTRQFAALATRMNLYASCGSDYHGPGESYFDLGRLPALPPECTPIWNEWEIPDYAETGATTLNEQSEQTGLQSPGKSV | not soluble
3 | MMSDQENENEHAKAFLGLAKCEEEVDAIEREVELYRLNKMKPVYEKRDAYIDEIAEFWKIVLSQHVSFANYIRASDFKYIDTIDKIKVEWLALESEMYDTRDFSITFHFHGIEGDFKEQQVTKVFQIKKGKDDQEDGILTSEPVPIEWPQSYDSINPDLIKDKRSPEGKKKYRQGMKTIFGWFRWTGLKPGKEFPHGDSLASLFSEEIYPFCVKYYAEAQRDLEDEEGESGLSADGDSEDDDGSLGEVDLPLSDEEPSSKKRKV | soluble
4 | MMSLREKLIRELRRRGPIGIDQYEIEELMGFSKSTASEALSKLEAEGIIARRQISGRSKRVWLREFIPYRDPEMIRIGCLKSTEYAGFLSAAKDYCENKGIKAVIRFYNDATSILHDLSTGTLEFGLSPIFTETLFALSRHDIVIAGPVASGGSGIFENPASCENIVATSESTSMMLLSREFRRREGDVKITIFSDPIKASDGFRAGDFRYIAIWEPYASVIGANKLYDYSDLMDTFPCCGIAVSSGRSKDADLKSIIDAYRETDVEIRSDVIDMLSKATRCSKRAVMNSLGSYNFKLKYDMQTILRYMDFIGYPASEDAIKKVFLL | soluble
5 | MMTKTQINKLIKMMNDLDYPFEAPLKESFIESIIQIEFNSNSTNCLEKLCNEVSILFKNQPDYLTFLRAMDGFEVNGLRLFSLSIPEPSVKNLFAVNEFYRNNDDFINPDLQERLVIGDYSISIFTYDIKGDAANLLILEHHHHHH | not soluble
6 | MMTSNSYWQRLKVAFQYVMPQIYLTQIAGWFAKQKWGKITHFVIKAFAKKYNIDMSIAQKEQFSDYASFNEFFIRPLKENARPINQNPTALCLPADGRISECGHIDDNLLLQAKGHFFSLEDLLAEDKELVETFKNGEFVTTYLSPRDYHRVHMPCDATLRKMIYVPGDLFSVNPFLAQHVPNLFARNERVICVFDTEFGTMVQILVGATITASIGTTWAGVINPPRHNEVKTWTYEGESAVKLLKGQEMGWFQLGSTVINLFQANQVRLADHLSVNEPVRMGEILAYKKLEHHHHHH | not soluble
7 | MMVRVMRYKKVPVKKIVNKIIDECDVILLVLDARDPEMTRNRELEKKIKAKGKKLIYVLNKADLVPKDILEKWKEVFGENTVFVSAKRRLGTKILREMIKQSLKEMGKKEGKVGIVGYPNVGKSSIINALTGKRKALTGSVAGLTKGEQWVRLTKNIKLMDTPGVLEMRDEDDLVISGALRLEKVENPIPPALKILSRINNFDNSIIKEYFGVDYEEVDEELLKKIGNKRSYLTKGGEVDLVRTAKTIIKEYQDGKLNYYKVDLKKYGQDRERDISFITKYLKDFPFIEDAKMIVTHLKDFDGLYKKIKKPVLGSEEIDGNIVVVSFGEKTKDACRKKVENLCRERNIEVLSKFGDKIGANNIYVAVGKRVKE | soluble
8 | MMVYQRPVFTVISLLRIRNREEAKLVLIGAVVVYRNFVEQTLADAQKNWVKSLVLYDDPGDAVTGILTWFSRYACLHGPRLGPLDTIAVNDNPLYIYCPRRKLEEYAKERIVSFHSEIGSVVCSMSPFDAGVTREKVRYGHNLISPGSCLLPDALEAYVAFLPSKSFLKLPYSVYEVHNDRYVHKFFALLPGSRFHFEVVAVGLAYPAAKKRPSGLGILRCCFTGKTNTCLLEHHHHHH | soluble
9 | MNAGKKGVIYTCITGGYDELLNHTFISPEWDYVCFSDDMGINNEKNAQWEIRPLRFEKLDDVRNQRWHKLHPHLLFPESGLSLWVDGNVDILDGEIFHDIDRALNANLLIAPSLHPERNCIYDEFDACRQLGKDDPDVMGRQEYLIKKDGFPKAKGLFETNIIFRCHSHPMVITIMEEWWYWVEQYSRRDQLGFTYVLWKNNYTVEPLSPVSYRFSPGVRFRYGAFHITKEQLIKEKAALEIKVQRFEALICGRLVKVLYKIRKSTVKRWCRVKMQLLNSLCCRKLEHHHHHH | not soluble
10 | MNALDLDVLQHARDWLASGRRVHLVTVVQTWGSAPRQAGAMLAVRDDGQVVGSVSGGCIEDDLIARARAGTLPERAERLTYGVTRDEATRFGLPCGGTLRLVAEPLAPRDAWLDEVLQAIAEHRLVRRTIDLHTGAAALEAAAPAEGPDFDGRMFRAVYGPHWRLLIIGANQTAQVRADIAATLDFQVIVCDPREEFHAAWHAPHATLVTTMPDDTVLEIGTDERTAIVALTHDPKLDDMVLLEALKSRAFYVGALGSRANQEKRRERLRLFDLGDEDIARLRGPVGLPIASRTPAEIAVAVAAELVWVRNTLGDREPSGAPLPAALAPAR | not soluble
11 | MNALPPARRLRVASIGGGFSGAALAWHLARAHRPERLSISVIEPRLALGGGLAYSSEEPSHRVNVPAVRMSMAPDDPQHFVRWLAGSGELERDADAIWKNGDAYPRRRVFGRYVAEHLAPYLASGAVRHVGGPATGVTREANGAGWTVQTSAGPVIADIVVLAATHPAPAIPAALASLAEASGFVADPYAASALAGIGLDASVLIVGSGLTSADMVTELDRRGHRGRVLALSRRGLRSRGHPDVRGEPFGDFASAPATSALGLLKSIRATLAAAREANVNWQSVFDQLRLQGPVLWAALAPSERARLVRQLRVFWDVHRFRIAPQIASVLDRRQTAGTFDTIAARLVASNDEGENLAVSFQRRGQTRIETARFDAVINTTGPAHGQALQLNPALRSLAEAGLIRSDAYGLGIETSLDSRAIGWDGEAVAGLFVAGPLARGTFGELMGLPEVARHAQMVAAEIARLVDRFPSAEAVGANAGDVATARLEHHHHHH | not soluble
12 | MNAPVKFEYFKNPKNRELTAVELEAFAKELDQIKQEVLDDIGEKDAKYIRRVYSAVRYSSMLGRACLFAGWFPPAWILGTGLLGFSKIMENMELGHNVMHGQYDWMNDPKFNGQTYEWDTVGTADNWRQTHNYKHHTYTNIKGIDDDIGYGLLRLFPEQRWKPGFLLQPIYSIPFCMLFQWGVAIQNLEIGKLIYKRKTWKQFKQECKPTQKKIGKQLFKDYVFFPLIAGPAALPVFTGNLVANGIRNAWTFSIIFCGHFTKDVEVFPKTVLQNETRGHWYMRQIRGSSNLTGSEAFHILTGHLSHQIEHHLFPDVPARRYRQMAPKVEAVCKKYGLNYNNASLFKQYGQVLGRIVKYAFPFKKLEHHHHHH | soluble
13 | MNAQRVVVMGLGNLLWADEGFGIRVAERLYARYHWPEEVEIVDGGTQGLNLLGYVEQASHLLLLDAIDYGLAPGSLRTYAGEKIPAYLSAKKMSLHQNSFSEVLALADIRGHLPCHIALVGLQPALLDDYGGSLSEIARSQLPAAEQAALAQLAAWGIVPQANEVARCLNYKCLSMENYEGVRIRQYQTRLEGKRSGE | not soluble
14 | MNDAPPFDLDAYLARIGYTGPRNASLDTLKALHFAHPQAIPFENIDPFLGRPVRLDLAALQDKIVLGGRGGYCFEHNLLFMHALKALGFEVGGLAARVLWGQSEDAITARSHMLLRVELDGRTYIADVGFGGLTLTAPLLLEPGREQKTPHEPFRIVEADDHFRLQAAIGGDWRSLYRFDLQPQYEVDYSVTNYFLSTSPTSHFLSSVIAARAAPDRRYALRGNRLSIHHLGGRTEQTEIATAADLADTLQGLLGIIIPDRTAFEAKVRETKIVETNA | soluble
15 | MNDYTQQLQGKKDYLKTLFAGLDVPEWEVYESPDKHYRMRAEFRIWHEGGEMFYAMFEKGQKASGASMIRCDRFEAASEAVNRLMPELIAAAAQSPELKKRWYAVEFLSTLSGEMLVTMIYHKRLDAEWMQAAQALQQQLDISVIGRSRGQKIVLKQDYVTETLKVGNRDFRYRQIEGS | not soluble
16 | MNEADMLFSVTVPGSTANLGPGFDSVGMALSRYLKLTVFESDKWSFEAETETVAGIPAGTDNLIYQVAKRTADLYGKEMPPVHVKVWSDIPLARGLGSSAAAIVAAIELADELCGLKLSEADKLHLASLEEGHPDNAGASLVGGLVIGLHEDDETQMIRVPNADIDVVVVIPFYEVLTRDARDVLPKEFPYADAVKASAVSNILIAAIMSKDWPLVGKIMKKDMFHQPYRAMLVPELSKVEHVAEMKGAYGTALSGAGPTILVMTEKGKGEELKEQLALHFPHCEVDALTVPKEGSIIERNPLYQVKSV | not soluble
17 | MNEALDDIDRILVRELAADGRATLSELATRAGLSVSAVQSRVRRLESRGVVQGYSARINPEAVGHLLSAFVAITPLDPSQPDDAPARLEHIEEVESCYSVAGEESYVLLVRVASARALEDLLQRIRTTANVRTRSTIILNTFYSDRQHIP | soluble
18 | MNEEQRKAGTINILAERDRKAEKDYSKYFEQVYQPPSLKEAKKRGKQEVQYNRDFHIDEKYKGMGKGRTFLIKTYGCQMNAHDTEVMAGILNALGYSATSDINEADVILINTCAIRENAENKVFSEIGNLKHLKKERPDCLIGVCGCMSQEESVVNKILKSYQNVDMVFGTHNIHHLPEILEEAYLSKAMVVEVWSKEGDIIENLPKVRDGHIKAWVNIMYGCDKFCTYCIVPFTRGKERSRRPEDIIDEVRELAREGYQEITLLGQNVNSYGKDIEGLDYELGDLLEDISKIDIPRVRFTTSHPWDFTDRMIEVIAKGGNIVPHIHLPVQSGNNQVLKIMGRKYTRESYLDLVSRIKEAIPNVALTTDIIVGYPNETEEQFEETLSLYDDVQFEHAYTYLYSQRDGTPAAKMKDNVPLEVKKERLQRLNKKVGIYSQQAMSQYEGKIVTVLCEGSSKKDENVLAGYTDKNKLVNFKGPRESIGKLVDVKIDEAKQYSLNGTFIQEHQRSMVTQLEHHHHHH | soluble
19 | MNEIKTSCASTDRKWSTWESIDWNKCVIAVNKLQARIVKAQKAGKHGRVKSLQWVLTHSFYAKALAVKRVTSNSGSDTAGVDKVKWSTPNARFKAIGELKRRGYKPQPLKRVNIKKSNGKLRPLGIPTMKDRAMQALYLLALEPVSETTADSNSYGFRKERSTGDAREQCFCVLAKKASPEWIMEGDIQGCFDHISHEWLLNNIPMDKVMLRKWLKCGFVFNKELFPTEEGTPQGGIISPTLANMTLDGLQTMLAEKYHKKFVTRKTTTYYPKVHLVRYADDFIITGRNKEALEEIKPLVVDFLKERGLTLSEEKTKITHIDDGFDFLGYNIRKYKGVLLIKPSQKSLKKFMQKIRGIIDSNKGSKQESLIRLLNPVITGWVNYYKNCVASDTFRKADYLIFEKLWQWATRRHPKKGKYWIADRYFTRVKNRNWCFVANFKKGKTDDRIALKRLYDTKITRYVKVKGEANPFAPEWTEYFEKRKTYKMLQSLNGRKSLLYMWERQNHLCPVCGKPIDKEHPWGTSQQTVNGKKVNNLLHDSCRRKVIQTNKM | not soluble
20 | MNEKFRTDLAHTFGIALEEQTDVLSFHDNDGHEWILECASQSEILFFYCYLLNSESIQINSILEMNSNRELLGMFFLSLKDDNILLNIAFPADKIDITEFANLMENGYLLKNEIIRSLSSRPTDFLP | not soluble
